Consider 24 sequences from the supplement of paper PMC9170038.

This series has as its system MS2 coat protein. In words: apparent KD of MS2 coat protein; designed switch direction (-1 OFF switch, 1 ON switch): -1; higher = weaker reporter binding. Summed up:
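SNAP-549-labelled MS2 coat protein was titrated, doubling from 0.7 or 1.5 nM to 3 µM, over designed RNA switches transcribed on Illumina chips by stalled E. coli RNA polymerase. Runs were done without input, with 200 uM small-molecule ligand, or with an oligonucleotide input. Apparent KD is the per-design median over clusters of curve-fitted normalised fluorescence.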

The mark [1] stands for this setting: Eterna round: R95, input ligand: FMN 200 uM.
Setting [2] is: Eterna round: R95, input ligand: microRNA oligo, concentration not stated.
[3] abbreviates: Eterna round: R95, input ligand: none.
[4] abbreviates: input ligand: microRNA oligo, concentration not stated.

With “CCCAGGGCAGGAUAUAGAGGGUGAAACAUGAGGAUCACCCAUGUGACCUCGGAACAGCUGCUAGAAGGGCCAAAUU [Eszaraxe] (puzzle: Exclusion 5)”, the “apparent KD of MS2 coat protein” value was 19.2 nM under setting [1], 15.3 nM under setting [2] and 16.3 nM under setting [3].

Consider “CCCAGUUAUUGAGGAUAUCGUACAUGAGGAUCACCCAUGUAAUAAAUGAGGAUUUCGGGUGUCUACGAGAAGGCAAGGAUAGGC [Ostracism 21 - Jieux - Exclusion NG 2] (Eterna round: R96, puzzle: Exclusion NG 2)”, for which the “apparent KD of MS2 coat protein” value by setting is: (input ligand: FMN 200 uM) 61.3 nM; under setting [4], 37.4 nM; (input ligand: none) 49.6 nM.

Consider “CCCAUGUUAGGAUAUAUGGAAGGGCAGACGGGCGCCCUAAGGUAGAAGGAACAUGAGGAUCACCCAUGUAAUAA [Zausteesre] (Eterna round: R97, puzzle: Exclusion 4)”, for which the “apparent KD of MS2 coat protein” value by setting is: (input ligand: FMN 200 uM) 113 nM; (input ligand: none) 67.3 nM.

In the case of “CCCGACAUGUCUUCGUAAUACAUGAGGAUCACCCAUGUCACGUAGGAUAUCCAGUCGGUAAGAGAGGAGAAGGAUGUAAGAAAU [Vedite] (Eterna round: R96, puzzle: Exclusion NG 3)”, the “apparent KD of MS2 coat protein” value is 15.5 nM (input ligand: FMN 200 uM), 9.14 nM under setting [4] and 15.5 nM (input ligand: none).

“CCCGUCGAUGUAGGAUAUGCCCGGGUCUCCCGGGCAGAAGGACAUGAGGAUCACCCAUGUUCAUGAGGAUCACCCAUGAAUGGG [Double but mutated MS2] (Eterna round: R96, puzzle: Exclusion NG 1)”: the “apparent KD of MS2 coat protein” value (input ligand: FMN 200 uM) was found to be 12.1 nM, the “apparent KD of MS2 coat protein” value under setting [4] came to 12.1 nM and the “apparent KD of MS2 coat protein” value (input ligand: none) was 16.6 nM.

On to “CCCGUGUAAGGAUAUCGUUCACUUGGCAAAAGUCGAGUGGACGAGAAGGUACAUGAGGAUCACCCAUGUACGGG [-32.4, -32 kcal, A 28%] (Eterna round: R97, puzzle: Exclusion 4)”, for which the “apparent KD of MS2 coat protein” value (input ligand: FMN 200 uM) was found to be 406 nM and the “apparent KD of MS2 coat protein” value (input ligand: none) worked out at 282 nM.

With “CCCUCACUUGAGGAUCACCCAAGUCAGGAUAUCUCACCCAUCCUACGGGACGGGUCACAGAGAAGGGACUAAAA [Isdius] (Eterna round: R97, puzzle: Exclusion 1)”, the “apparent KD of MS2 coat protein” value was determined as 37.3 nM (input ligand: FMN 200 uM) and 20 nM (input ligand: none).

On to “CCCUCAUGACGCACAUGAGGAUCACCCAUGUAUAAACCGUCAGAGGAUAUCCGCCGGUCACCGAAGGAGAAGGCUGACCUAAAG [Quinlaan] (Eterna round: R96, puzzle: Exclusion NG 3)”, for which the “apparent KD of MS2 coat protein” value (input ligand: FMN 200 uM) was 21.2 nM, the “apparent KD of MS2 coat protein” value under setting [4] is 11 nM and the “apparent KD of MS2 coat protein” value (input ligand: none) was determined as 18.2 nM.

For the sequence “CCCUCGGGAGGAUAUGGGUGUUUUUACAUGAGGAUCACCCAUGUGGAGUAGCAUGUGGGUCCAGAAGGCCCAAGGG [-27.5, -25.8 kcal, 22% A] (Eterna round: R97, puzzle: Exclusion 5)”, the “apparent KD of MS2 coat protein” value is, setting by setting: (input ligand: FMN 200 uM) 873 nM; (input ligand: none) 815 nM.

With “CCGAACAUAGGAUAUACAUGAGGAUCACCCAUGUAUAUAAAAGGGUGUUCCAACUAAAGUAGAAGGAUGUAAGG [ExFusion 1 - Jieux - Exclusion 3] (Eterna round: R97, puzzle: Exclusion 3)”, the “apparent KD of MS2 coat protein” value amounted to 36.5 nM (input ligand: FMN 200 uM) and 40.6 nM (input ligand: none).

For “CCGAGGCUAGGAUAUUGACGAUAAUACAUGAGGAUCACCCAUGUGAGUCGUGUAUGCGCGCAAGAAGGAGUAAUAA [Tiorreonbi] (puzzle: Exclusion 5)”, the “apparent KD of MS2 coat protein” value under setting [2] came to 15.2 nM.

Regarding “CCGCAAAUGAAGGAUAUCGUAUCGGAUACGAUACGAGAAGGUCGAACAUGAGGAUCACCCAUGUGUCCUAGCGG [Fiskers Ex 6 - 41] (puzzle: Exclusion 6)”, the “apparent KD of MS2 coat protein” value under setting [1] was 19.4 nM, the “apparent KD of MS2 coat protein” value under setting [2] was 11.2 nM and the “apparent KD of MS2 coat protein” value under setting [3] worked out at 12.1 nM.

Regarding “CCGCUAAGAGCAGGAUAUGAGUAACAUGAGGAUCACCCAUGUGGACCAUGAAACAGUCCACGCAGUCAGAAGGGUUACGUGGCA [Eternabot solution 33] (Eterna round: R96, puzzle: Exclusion NG 2)”, the “apparent KD of MS2 coat protein” value was 38.8 nM (input ligand: FMN 200 uM), 23.1 nM under setting [4] and 34.3 nM (input ligand: none).

With “CCGCUGCAAGGAUAUACUUGCGGUGAUGUUCGAGUUCUUCUACUUGAGGAUCACCCAAGUAGAAGGUGCAAAAC [jl-ex2.4.58 ViennaUCT mod] (Eterna round: R97, puzzle: Exclusion 2)”, the “apparent KD of MS2 coat protein” value by setting is: (input ligand: FMN 200 uM) 19.2 nM; (input ligand: none) 19.3 nM.

Regarding “CCGCUGCAAGGAUAUACUUGCGGUGGUGUUCGAGUUCUUUUACUUGAGGAUCACCCAAGUAGAAGGUGCAAAAC [jl-ex2.4.54 ViennaUCT mod] (Eterna round: R97, puzzle: Exclusion 2)”, the “apparent KD of MS2 coat protein” value reads like this: (input ligand: FMN 200 uM) 17.3 nM; (input ligand: none) 16.2 nM.

In the case of “CCGGAAAUAGAGGAUAUCGUAUCGGAUACGAUACGAGAAGGCUAUACAUGAGGAUCACCCAUGUGUCCUACCGG [Fiskers Ex 6 - 56] (puzzle: Exclusion 6)”, under setting [2], the “apparent KD of MS2 coat protein” value amounted to 16.1 nM.

On to “CCGGAAAUGCAGGAUAUCGUAUCGGAUACGAUACGAGAAGGGUAUACAUGAGGAUCACCCAUGUGUCCUCCCGG [Fiskers Ex 6 - 53] (puzzle: Exclusion 6)”, for which the “apparent KD of MS2 coat protein” value under setting [2] came out at 28 nM.

In the case of “CCGGAAGUACAGGAUAUCGUAUCGGAAACGAUACGAGAAGGGUAUACAUGAGGAUCACCCAUGUGUCCUACCGG [Fiskers Ex 6 - 27] (puzzle: Exclusion 6)”, the “apparent KD of MS2 coat protein” value under setting [2] amounted to 23.3 nM.

For “CCGGAAGUAGAGGAUAUAGGAGUCGAUAGACUCCUAGAAGGCUAUACAUGAGGAUCACCCAUGUGUCCUACCGG [Fiskers Ex 6 - 68] (puzzle: Exclusion 6)”, the “apparent KD of MS2 coat protein” value under setting [2] was 19.1 nM.

On to “CCGGAAUUGAAGGAUAUAGGAGUCGAUAGACACCUAGAAGGUCAGACAUGAGGAUCACCCAUGUGUCCUACCGG [Fiskers Ex 6 - 86] (puzzle: Exclusion 6)”, for which the “apparent KD of MS2 coat protein” value came out at 27.4 nM under setting [1], 21 nM under setting [2] and 17.4 nM under setting [3].

Turning to “CCGGAUUAGUAGGAUAUAGGAGUCGAUAGACACCUAGAAGGACUAACAUGAGGAUCACCCAUGUGUCCUACCGG [Mod of Eli 19 - Jieux - Exclusion 6] (Eterna round: R97, puzzle: Exclusion 6)”, the “apparent KD of MS2 coat protein” value was determined as 39 nM (input ligand: FMN 200 uM) and 16.7 nM (input ligand: none).

As to “CCGGCAUGAGGAUAUCCAUCUGGAUCAGACUAGAUCCUGAUGGAGAAGGCACAUGAGGAUCACCCAUGUUACGG [Eli 4x 4.38] (Eterna round: R97, puzzle: Exclusion 4)”, the “apparent KD of MS2 coat protein” value turned out to be 51.2 nM (input ligand: FMN 200 uM) and 173 nM (input ligand: none).

For “CCGGCUUAGCAGGAUAUAGGAGUCGAUAGACACCUAGAAGGGCUAACAUGAGGAUCACCCAUGUGUCCUACCGG [Fiskers Ex 6 - 100] (puzzle: Exclusion 6)”, the “apparent KD of MS2 coat protein” value amounted to 65 nM under setting [1], 25.9 nM under setting [2] and 30.7 nM under setting [3].

Consider “CCGGCUUAGCAGGAUAUAGGAGUCGAUAGACACCUAGAAGGGCUAACAUGAGGAUCACCCAUGUGUCCUACCGG [Mod of Eli 2 - Jieux - Exclusion 6] (Eterna round: R97, puzzle: Exclusion 6)”, for which the “apparent KD of MS2 coat protein” value (input ligand: FMN 200 uM) amounted to 102 nM and the “apparent KD of MS2 coat protein” value (input ligand: none) is 47.6 nM.
